Measured values from paper PMC4797271, “The quorum-sensing regulator ComA from Bacillus subtilis activates transcription using topologically distinct DNA motifs” (Nucleic Acids Research, 2015).

Biological target: T1, sigma-factor σ^A from Bacillus subtilis (Bacillus subtilis W168, UniProt P06224 1-371)
T1 construct: RNA polymerase sigma factor A (house-keeping sigma factor), Bacillus subtilis W168; gene amplified from the chromosome and cloned into pBAD18; also called house-keeping sigma-factor σ^A; σ^A-subunit of RNAP; source: E. coli, pBAD18, purified on Ni-NTA columns
T1 sequence (P06224 whole entry): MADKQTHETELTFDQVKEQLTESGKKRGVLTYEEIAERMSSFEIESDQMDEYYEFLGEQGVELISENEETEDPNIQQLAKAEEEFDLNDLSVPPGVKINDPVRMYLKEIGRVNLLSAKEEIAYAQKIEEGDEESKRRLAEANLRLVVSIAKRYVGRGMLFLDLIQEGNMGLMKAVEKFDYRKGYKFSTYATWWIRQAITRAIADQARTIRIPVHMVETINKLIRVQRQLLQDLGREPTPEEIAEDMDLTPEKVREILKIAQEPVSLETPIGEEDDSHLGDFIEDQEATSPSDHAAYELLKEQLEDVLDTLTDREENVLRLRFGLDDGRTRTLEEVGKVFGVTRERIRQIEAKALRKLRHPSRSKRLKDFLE
Experiment: native gel or EMSA; super-shift of ComA-bound biotinylated rapA promoter DNA (ComA at full occupancy) on adding α or σ^A; 10 mM HEPES pH 7.6, 2 mM MgCl2, 0.1 mM EDTA, 200 mM KCl, 5 mM DTT, 10% glycerol; 20 min at room temperature; native 8% polyacrylamide gel, 0.5x TBE
Conditions: both partners purified

B1: ComA from Bacillus subtilis (His6-tagged ComA protein) (natural protein, Bacillus subtilis W168, UniProt P14204 1-214, looked up)
chain: MKKILVIDDHPAVMEGTKTILETDSNLSVDCLSPEPSEQFIKQHDFSSYDLILMDLNLGGEVNGMELSKQILQENPHCKIIVYTGYEVEDYFEEAIRAGLHGAISKTESKEKITQYIYHVLNGEILVDFAYFKQLMTQQKTKPAPSSQKEQDVLTPRECLILQEVEKGFTNQEIADALHLSKRSIEYSLTSIFNKLNVGSRTEAVLIAKSDGVL
notes: Transcription factor ComA, Bacillus subtilis W168; gene amplified from the chromosome and cloned into pBAD18; At full occupancy the rapA promoter probably carries more than one dimer; also called recombinant His6-tagged ComA; source: E. coli, pBAD18, purified on Ni-NTA columns; not shown: His6, N-terminal, kept
**Q.** Does B1 bind?
**A.** binds
